Where “and” joins values, the source holds several entries; their conditions need not be identical. Equal entries are not always repeated.
Molecular target: HLA-DQ7 (MHC class II) on autologous antigen presenting cells (BLCL) of patient 5 (human)
Assay: cell-based or functional assay

Binder | interferon gamma ELISpot with expanded patient 5 T cells
WSDGTGLNAL [P17 redesign Des-2 peptide (163-WSDGTGLNAL-172)] | ~25 spot forming units/10,000 cells
WSDGLALNAL [native dystrophin exon-6 P17 HLA-DQ7 epitope peptide (163-WSDGLALNAL-172)] | ~75 spot forming units/10,000 cells and ~3 fold above background
LSDGTGLNAL [P17 redesign Des-3 peptide (163-LSDGTGLNAL-172)] | ~25 spot forming units/10,000 cells
WSNGLGLDAL [P17 redesign Des-1 peptide (163-WSNGLGLDAL-172)] | ~25 spot forming units/10,000 cells
